Source: patent US20260125725A1 (ANTHEIA, published 2026)

B1: THS1s (N-terminally truncated splice variant of THS1, SEQ ID NO. 81) (enzyme)
chain: MYKHGEDVQKAVPHLCVDVKVISGDPTRSGCIKEWNVNIDGKTIRSVEETTHNDETKTLRHRVFEGDMMKDFKKFDTIMVVNPKPDGNGCVVTRSIEYEKTNENSPTPFDYLQFGHQAIEDMNKYLRDSE
notes: Purified recombinant His6-tagged protein from E. coli; 131 amino acids
B2: THS2 (thebaine synthesis polypeptide isoform, SEQ ID NO. 6) (enzyme)
chain: MAPLGVSGLVGKLSTELEVDCDAEKYYNMYKHGEDVKKAVPHLCVDVKIISGDPTSSGCIKEWNVNIDGKTIRSVEETTHDDETKTLRHRVFEGDVMKDFKKFDTIMVVNPKPDGNGCVVTRSIEYEKTNENSPTPFDYLQFGHQAIEDMNKYLRDSESN
notes: Purified recombinant protein from E. coli, made from a codon-optimized gene; 163 amino acids; also called Betv1; Betv1M
B3: THS2s (N-terminally truncated splice variant of THS2, SEQ ID NO. 32) (enzyme)
chain: MYKHGEDVKKAVPHLCVDVKIISGDPTSSGCIKEWNVNIDGKTIRSVEETTHDDETKTLRHRVFEGDVMKDFKKFDTIMVVNPKPDGNGCVVTRSIEYEKTNENSPTPFDYLQFGHQAIEDMNKYLRDSESN
notes: Purified recombinant His6-tagged protein from E. coli; 133 amino acids; also called BetV1-1S; Bet v1-1S
B4: THS1 (thebaine synthesis polypeptide isoform, SEQ ID NO. 80) (enzyme)
chain: MDSINSSIYFCAYFRELIIKLLMAPLGVSGLVGKLSTELEVDCDAEKYYNMYKHGEDVQKAVPHLCVDVKVISGDPTRSGCIKEWNVNIDGKTIRSVEETTHNDETKTLRHRVFEGDMMKDFKKFDTIMVVNPKPDGNGCVVTRSIEYEKTNENSPTPFDYLQFGHQAIEDMNKYLRDSE
notes: Purified recombinant protein from E. coli, made from a codon-optimized gene; It carries a His6-tag; 181 amino acids; also called thebaine synthase 1

Key:
[1] = target: the molecule itself; assay: BS3 chemical cross-linking of purified recombinant protein, SDS-PAGE and immunoblot
Description: (§1) All versions of THS1 and THS2 transcripts were codon-optimized and expressed in E. coli. Purified recombinant THS proteins were added to SalAT-coupled enzyme assays. […] Chemical cross-linking with the purified, recombinant THS proteins was performed to confirm dimerization (FIGS. 15A and 15B). Both THS1 and THS2 can form homodimers, and also display the formation of higher molecular weight oligomers at lower abundance. […] To further investigate the relative abundance of THS isoforms in the plant, protein extracts derived from whole stem, latex-free stem, and latex isolated from the T chemotype were subjected to proteomics analysis (FIG. 11C). In detected peptides with at least one amino acid substitution spectral counts for THS2 were considerably higher than for THS1, consistent with the higher abundance of THS2, compared with THS1, transcripts (FIG. 12C).
(§2) Cross-linking experiments. Bis[sulfosuccinimidyl] suberate (BS3) was used as cross-linking reagent and prepared in PBS buffer at a concentration of 10 mM, of which 2 μL was added to 20 μL of purified recombinant protein (1 μg/μL). After incubation on ice for 1 h, 5 μL of 5×SDS (10% w/v) was added to quench the reaction. Samples were then boiled for 5 min and subjected to SDS-PAGE and immunoblot analysis.

[2] = target: the molecule itself; assay: size exclusion chromatography of purified recombinant THS2 (FIG. 15B)
[3] = target: the molecule itself; assay: cross-linking, SDS-PAGE and immunoblot (FIG. 15A)
Description: as §1, §2

Row | Protein | binding result [1] | also measured
1 | B1 | binds | 
2 | B2 |  | binding result [2]: binds
3 | B3 |  | binding result [3]: binds
4 | B4 | binds | 
